Columns and labels:
[1] = target: T1, SapH (Streptomyces albus, UniProt A0ACH0CL42); assay: relative activity by HPLC, coupled with SapB; format: biochemical; conditions: amino donor 5 mM, 1.5 mM uridine, 1 μM SapB, 2 μM SapH, pH 7.5
T1 construct: gene NR995_03130; homodimer

[2] = target: T2, SapB (Streptomyces albus, UniProt A0ACH0CL45); assay: LC/MS of cofactor released by boiling; format: binding; conditions: copurified, tightly bound
T2 construct: gene NR995_03120; N-terminal His6-tag, codon-optimized synthetic gene in pBADHisBd, E. coli TOP10
T2 sequence (A0ACH0CL45 1-509): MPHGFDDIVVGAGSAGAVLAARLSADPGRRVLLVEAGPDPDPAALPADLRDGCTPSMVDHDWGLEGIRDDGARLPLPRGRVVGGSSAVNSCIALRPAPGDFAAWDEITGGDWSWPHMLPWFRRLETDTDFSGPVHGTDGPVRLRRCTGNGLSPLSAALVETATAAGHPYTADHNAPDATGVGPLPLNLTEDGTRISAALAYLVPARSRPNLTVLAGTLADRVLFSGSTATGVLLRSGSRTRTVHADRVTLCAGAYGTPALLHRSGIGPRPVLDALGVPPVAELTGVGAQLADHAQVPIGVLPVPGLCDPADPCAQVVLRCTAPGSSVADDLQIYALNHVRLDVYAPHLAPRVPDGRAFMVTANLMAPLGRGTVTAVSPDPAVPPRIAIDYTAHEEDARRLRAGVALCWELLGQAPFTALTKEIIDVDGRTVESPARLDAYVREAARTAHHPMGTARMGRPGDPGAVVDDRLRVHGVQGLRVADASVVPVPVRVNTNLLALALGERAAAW

[3] = target: T1, SapH; assay: X-ray crystallography, […] Å; format: binding; conditions: active site at dimer interface; non-covalent (no link to Lys289); crystals pH 7.5, 20 °C
[4] = tested on: O=c1[nH]cc([C@@H]2O[C@H](CO)[C@@H](O)[C@H]2O)c(=O)[nH]1; assay: purified protein; conditions: 50 mM Tris-HCl pH 7.5, 10 mM NaCl, 10 mM KCl, 5 mM MgCl2, O2 as electron acceptor
[5] = tested on: O=c1[nH]c(=O)c([C@@H]2O[C@H](CO)[C@@H](O)[C@H]2O)co1; assay: purified protein; conditions: 50 mM Tris-HCl pH 7.5, 10 mM NaCl, 10 mM KCl, 5 mM MgCl2, O2 as electron acceptor
[6] = target: SapH (Streptomyces albus DSM 40763); assay: crystal structure; hanging drop vapour diffusion at 20 °C; SapH 9.9 mg/mL in 50 mM TAPS pH 8.5, 250 mM NaCl, 10% glycerol; well 0.1 M BisTRIS-propane, 0.2 M Na-K-phosphate, 27.5% PEG3350, pH 7.5; space group P212121; dimer in the asymmetric unit

T1 sequence (A0ACH0CL42 entry or part of it): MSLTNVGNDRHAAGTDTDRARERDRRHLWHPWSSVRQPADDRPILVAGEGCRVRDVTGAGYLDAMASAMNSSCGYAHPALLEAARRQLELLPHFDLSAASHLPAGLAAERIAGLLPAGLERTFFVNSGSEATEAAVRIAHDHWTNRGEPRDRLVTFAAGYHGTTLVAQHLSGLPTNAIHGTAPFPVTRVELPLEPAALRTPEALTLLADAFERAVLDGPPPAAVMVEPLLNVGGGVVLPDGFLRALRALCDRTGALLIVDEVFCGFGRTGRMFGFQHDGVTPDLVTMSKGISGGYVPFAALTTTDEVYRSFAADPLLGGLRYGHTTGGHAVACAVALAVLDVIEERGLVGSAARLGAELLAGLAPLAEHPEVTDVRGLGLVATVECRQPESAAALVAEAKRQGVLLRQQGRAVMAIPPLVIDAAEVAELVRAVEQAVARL

N=C(N)NCCC[C@H](N)C(=O)O [arginine]
relative activity by HPLC, coupled with SapB [1]: shows preference for methionine, phenylalanine, and arginine

Cc1cc2nc3c(=O)[nH]c(=O)nc-3n(C[C@H](O)[C@H](O)[C@H](O)COP(=O)(O)OP(=O)(O)OC[C@H]3O[C@@H](n4cnc5c(N)ncnc54)[C@H](O)[C@@H]3O)c2cc1C [flavin adenine dinucleotide]
LC/MS of cofactor released by boiling [2]: LC/MS) analysis identified the SapB cofactor to be flavin adenine dinucleotide (FAD)

Cc1ncc(COP(=O)(O)O)c(CN)c1O [pyridoxamine-5′-phosphate]
X-ray crystallography, 1.55 Å [3]: The bound PLP was modeled as pyridoxamine, according to the observed electron density map

SapB (Streptomyces albus)
Km [4]: 34 ± 5 µM | kcat [4]: 0.019 s⁻¹ | kcat/Km [4]: 550 M⁻¹ s⁻¹ | Km [5]: 181 ± 25 µM | kcat [5]: 0.0172 s⁻¹ | kcat/Km [5]: 95 M⁻¹ s⁻¹

SapH (enzyme)
stoichiometry N [6]: 2

— PMC10127198, “Pseudouridine-Modifying Enzymes SapB and SapH Control Entry into the Pseudouridimycin Biosynthetic Pathway” (ACS Chemical Biology, 2023)
